Test results as given in patent US20050084868A1 (published 2005).

T1: carcinoembryonic antigen (UniProt P06731 35-685)
T1 construct: Bought reagent (Biodesign); also called CEA
T1 sequence: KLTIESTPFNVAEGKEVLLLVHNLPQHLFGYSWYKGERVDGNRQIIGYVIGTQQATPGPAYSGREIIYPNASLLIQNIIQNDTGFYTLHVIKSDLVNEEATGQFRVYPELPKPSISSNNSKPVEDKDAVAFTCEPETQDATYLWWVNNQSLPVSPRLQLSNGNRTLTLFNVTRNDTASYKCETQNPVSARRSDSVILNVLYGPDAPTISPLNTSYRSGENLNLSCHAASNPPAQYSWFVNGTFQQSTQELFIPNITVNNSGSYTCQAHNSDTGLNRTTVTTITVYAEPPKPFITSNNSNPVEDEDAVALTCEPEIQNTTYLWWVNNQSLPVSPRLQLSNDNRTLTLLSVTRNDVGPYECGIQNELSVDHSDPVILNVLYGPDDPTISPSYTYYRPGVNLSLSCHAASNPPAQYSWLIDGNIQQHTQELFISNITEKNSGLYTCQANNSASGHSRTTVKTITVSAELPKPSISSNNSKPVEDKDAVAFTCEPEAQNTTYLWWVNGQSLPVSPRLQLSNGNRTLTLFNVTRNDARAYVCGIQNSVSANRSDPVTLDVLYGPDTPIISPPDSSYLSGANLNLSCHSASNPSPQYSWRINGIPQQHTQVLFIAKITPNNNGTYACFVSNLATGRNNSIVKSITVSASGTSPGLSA

B1: NA05.9 (scFv)
chain: QVQLQQSGAELVRPGTSVKLSCTASGFNIKDSYMHWVRQGPGQGLEWIGWIDPENGDTEYAPKFQGKATFTTDTSSNTAYLQLSSLTSEDTAVYYCNEGTPTGPYYFDYWGQGTTVTVSSGGGGSGGGGSGGGGSQNVLTQSPAIVSASPGEKVTITCSASSSVSYMHWFQQKPGTSPKLVIYSTSNLASGVPARFSGSGSGTSYSLTISRMEAEDAATYYCQQRSSYPLTFGGGTKLELKRAATLVSEKQLAEVVANTITPLMKAQSVPGMAVAVIYQGKPHYYTFGKADIAANKPVTPQTLFELGSISKTFTGVLGGDAIARGEISLDDAVTRYWPQLTGKQWQGIRMLDLATYTAGGLPLQVPDEVTDNASLLRFYQNWQPQWKPGTTRLYANASIGLFGALAVKPSGMPYEQAMTTRVLKPLKLDHTWINVPKAEEAHYAWGYRDGKAVRVSPGMLDAQAYGVKTNVQDMANWVMANMAPENVADASLKQGIALAQSRYWRIGSMYQGLGWEMLNWPVEANTVVETSFGNVALAPLPVAEVNPPAPPVKASWVHKTGSTGGFGSYVAFIPEKQIGIVMLANTSYPNPARVEAAYHILEALQ
notes: Variant of the CAB1 scFv-BLA fusion, tested as crude lysate; Positions are numbered along the whole CAB1 fusion (pME27)
B2: NA05.12 (scFv)
chain: QVQLQQSGAELVRPGTSVKLSCTASGFNIKDSYMHWVRQGPEQGLEWIGWIDPENGDTEYAPKFQGKATFTTDTSSNTAYLQLSSLTSEDTAVYYCNEGTPTGPYYFDYWGQGTTVTVSSGGGGSGGGGSGGGGSENVLTQSPAIVSASPGEKVTITCSASSSVSYMHWFQQKPGTSPKLWIYSTSNLASGVPARFSGSGSGTSYSLTISRMEAEDAATYYCQQRSSYPLTFGAGTKLELKRAATLVSEKQLAEVVANTITPLMKAQSVPGMAVAVIYQGKPHYYTFGKADIAANKPVTPQTLFELGSISKTFTGVLGGDAIARGEISLDDAVTRYWPQLTGKQWQGIRMLDLATYTAGGLPLQVPDEVTDNASLLRFYQNWQPQWKPGTTRLYANASIGLFGALAVKPSGMPYEQAMTTRVLKPLKLDHTWINVPKAEEAHYAWGYRDGKAVRVSPGMLDAQAYGVKTNVQDMANWVMANMAPENVADASLKQGIALAQSRYWRIGSMYQGLGWEMLNWPVEANTVVETSFGNVALAPLPVAEVNPPAPPVKASWVHKTGSTGGFGSYVAFIPEKQIGIVMLANTSYPNPARVEAAYHILEALQ
notes: as for B1
B3: NA05.15 (scFv)
chain: QVKLQQSGAELVRSGTSVKLSCTASGFNIKDSYMHWLRQGPEQGLEWIGWIDPENGDTEYAPKFQGKATFTTDTSSNTAYLQLSSLTSEDTAVYYCNEGTPTGPYYFDYWGQGTTVTVSSGGGGSGGGGSGGGGSENVLTQSPAIVSASPGEKVTITCSASSSVSYMHWYQQKPGTSPKLWIYSTSNLASGVPDRFSGSGSGTSYSLTISRMEAEDAATYYCQQRSSYPLTFGAGTKLELKRAATLVSEKQLAEVVANTITPLMKAQSVPGMAVAVIYQGKPHYYTFGKADIAANKPVTPQTLFELGSISKTFTGVLGGDAIARGEISLDDAVTRYWPQLTGKQWQGIRMLDLATYTAGGLPLQVPDEVTDNASLLRFYQNWQPQWKPGTTRLYANASIGLFGALAVKPSGMPYEQAMTTRVLKPLKLDHTWINVPKAEEAHYAWGYRDGKAVRVSPGMLDAQAYGVKTNVQDMANWVMANMAPENVADASLKQGIALAQSRYWRIGSMYQGLGWEMLNWPVEANTVVETSFGNVALAPLPVAEVNPPAPPVKASWVHKTGSTGGFGSYVAFIPEKQIGIVMLANTSYPNPARVEAAYHILEALQ
notes: as for B1

These binders were tested against T1, carcinoembryonic antigen (assay: plate assay: CEA coated on wells, culture lysate added, bound fusion read by BLA activity on nitrocefin).
B1: binds. B2: binds. B3: binds.
